A short description of the series: label from the status in PepcDB records.
With “MDIELPGFDIERELGEGAMATVYLATQRSLQRKVALKVMAAALAADPSFAERFLREGRTLARLSHPNTVTIHDIGNVGSCYYMAMEYLPNGTLKERIQQGLDPEQGLAYVRQVAAALGYAHSQGLVHRDVKPANILFRADGTAVLSDFGIAKSIEDNTQFTQVGFAVGTPSYMSPEQARGQEIDGRADLYALGVVLYEILTGKLPYNGKDSLSTALAHLTEPLPELPIEQGRYQDILRQLLAKDPAERFPTAGALIAALDRLAPSALEATQIRPLATPQGSPRASNPPPAEPAPLPPADLGGLQPVSIQLPPVTPSAGGATPPPPPPSQAAKPPSPPPPPLPPAKPRAGGSRTPLIAAAAAAVLLAIGGGAWWLLGSGDAPSAADPAPLGQTPADKPQQQTPVADAEQDGGERPLLMPGKKTLFQRVLTKPGAAISAEAGGPPRAGAVPAFSVLYVYARKQVGGSPWLRVGASSNGEGDGWLPASAVSDWKQSLVLKFTERSGRAPVMFLNSAEQVERLLGDTRAARDTLTQAVDHKGDPQVVAVEPNDRAIPQDQFYLLPIFDSKESFDADGQPAQLLEVASIDPGGSAAAPQAPGQAGQGGASGAASDTFRTGIVLVVDTSVSMQPYIDRVREVIDGLQRQIGERGDLDKVSFGLVGFRNNTDKTPGLEYVSKTLVPLQPGNDAQRFAELSSQVRATDVSSHSFNEDAFAGIMQAVDEMDWSPYAGRVVLLVTDAGALRKNDPLGRTQMNEAEVRQAALRKGVKIYALHLRTPAGKNNHGYAEQQYRSLTADANPKIADLYIPVAGGEVNAFGNTVKEIGTVFADLVHDAGNRKPQAPRFDAAPSVASKSAAIGYAMQMEFLGRRDPVRAPQVVTAWTADRDLTNPALPAFQVCVLLSKLQLNELQQSLKLIVDAAKRTQTSPKDFFQEIASASAYMSRDPAQLVKGSNLAQSGVLGEYLEGLPYRSKSLNMTQDLWLSLSVAEQQDFIDELESKIRLYETFHNDVANWVRFGDADAGDALYRVPLSTLP”, the protein production result was “failed”.

For the sequence “MDIFLVIGIITGLLAVVVGMIVKGANVAVLLNPAAAIIIIVGTSAAVMNSFPKNEFTNIPKVFKSLMRGKSKEDPVEIINQIVDMAQETRKNGLLSLEGKIHSIDNEFLKTGLEMVVDGVDPQHIAEVLEMEIESTEERHRGGALIFTTAGGAAPTLGVLGAVVGLIGALGNLNDTEKLGHMIAGAFVATLYGIFFGYVICHPFASRLKRKSLEEINVMRIITEGILDIQSGNNPKSIEKKLIGTLSPKQRQSIQSKGE”, the protein production result is reported as “failed”.

Regarding “MDIFLVVLVLLTIIAISNIVNRFIPFIPVPLIQVALGILAASFPQGLHFELNTELFFVLFIAPLLFNDGKRTPRAELWNLRAPILLLALGLVFATVIVGGYTIHWMIPAIPLAAAFGLAAILSPTDVVAVSALSGRVKMPKGILRLLEGEGLMNDASGLVAFKFAIAAAVTGAFSLAQAAVSFVFISLGGLLCGVVISFLIIRFRLFLRRLGMQDVTMHMLIQILTPFVIYLAAEEIGVSGILAVVAGGITHAVEQDRLESTMIKLQIVSSSTWNIILFILNGLVFVILGTQIPDVISVIFNDTAISNMKVIGYILVITFTLMLLRFLWVLFFWNGKWFFNKDQNIYKPGLRSTLLISISGVRGAVTLAGSFSIPYFLEDGTPFPERNLILFLAAGVILCTLVIATVVLPILTEKEEEDEERNKKLLTARRKLIKTALQTIKEDMNETNKTASLAVIAEYNEKMKNLRFQQYTSSNRIKKHERKVRAQGVKAEQEALMKMLERGDIPEETANVLQERFNELEILYANPFKVGLSKTRLKRLMYWIFFGEHKKPEMSILNEAGLIRATRVKTAKAAIEYLEKHKTDEHKEVFLSVITFYKQLIFRLEHSHHELKSSAHFENQKLEVKLKAVQAIRNEIQTLFEEREISRDISHELRQYINDVEAAMLEGGE”, the protein production entry was “failed”.

Regarding “MDIGFLVFGLAGLLTLVCFMPPLAGRLKLPYSVLLALVGCLLGIGVHLHGWAPPVLGDLLDTIEHFEISSETFLMVFLPVLLFETALSMNVRRLIDDIGPILMMAIVAVVVCTLVVGFAVDAVSSYGLIVCLLLGAIVATTDPAAVVGIFREVGAPKRLTTLVEGESLFNDAASIALYSVLLAALGGSGELSVGAVFNDFIFHFVGGGLAGFLMGRLACALFAWLRGFPTAEITLTLTLAYLSFFISEHYLGVSGVVATVIAGLVVGSTGRTRMSPTTFEFLSSAWGQFGFWANSLIFLFAAMLIPKLMAEADWQELLLVLVVFAATLAARAIVVFGLLPLLRVARIGAEVSNPYKSVMWWGGLRGAVSLALALAVTEQSSVPEQARQFVAVATTGFVLMTLMINGVSLRPLIRMLGLNQLSPVERTIRNQVLAAALEDLQGRTEEIAKVDHVNPEARDRIRAVFDASLTSVHDGQVGQMTLDQRVAVGLSIVARREEEMFFDILKAQIVDWRLAEGLLARAERLEDAVRAGGLAGFEAGIVADVRYSRLFRMALRTHYMFGFQGWLARELGKRFASLLTKRSVARDLMKFAREQVAPLLGEEAADRIIAAHQRRLDLIENALQALTLQYPSYSLWLQESHLGRVARELERRRYRDMLEQFLISGEVYADLMAQLKARWQHIDKHPPLDIELGSAELVKRVPLFEGLSQDSLRAICRLLKPRLALPDQHILTEGRHGQEMCIVASGAVVVHLPDHTTIELGSGEFFGELALLGEEQLVPDVTSLGYSKLLMLSARDFHALLARDEHLRERIQTVAKQRMRAIEVWKQYSQAAAAAAASTASEDSAPA”, the protein production entry was “failed”.

Regarding “MDIKELKEIATKSREKQTKIRIRCCSAAGCLSSEGETVKKNLTTAIAAAGLEEKVEVCGVGCMKFCGRGPLVAVDDRNQLYEFVTPDQVGDIVKKLQKPDAVAETGLISGDPHHPFY”, the protein production result is given as “failed”.

Turning to “MDILKSEILRKRQLVEDRNLLVENKKYFKRSELAKKEEEAYFERCGYKIQPKEEDQKPLTSSNPVLELELAEEKLPMTLSRQEVIRRLRERGEPIRLFGETDYDAFQRLRKIEILTPEVNKGLRNDLKAALDKIDQQYLNEIVGGQEPGEEDTQNDLKVHEENTTIEELEALGESLGKGDDHKDMDIITKFLKFLLGVWAKELNAREDYVKRSVQGKLNSATQKQTESYLRPLFRKLRKRNLPADIKESITDIIKFMLQREYVKANDAYLQMAIGNAPWPIGVTMVGIHARTGREKIFSKHVAHVLNDETQRKYIQGLKRLMTICQKHFPTDPSKCVEYNAL”, the protein production result is “failed”.

In the case of “MDIRTITSSDYEMVTSVLNEWWGGRQLKEKLPRLFFEHFQDTSFITSEHNSMTGFLIGFQSQSDPETAYIHFSGVHPDFRKMQIGKQLYDVFIETVKQRGCTRVKCVTSPVNKVSIAYHTKLGFDIEKGTKTVNGISVFANYDGPGQDRVLFVKNI”, the protein production entry was “not failed”.

As for “MDISMKQSKRNLWWSVCAGLLFCSWGCSSQVSDKPVTLETLLDEMVSVEEQALYPVPSYTCRQESSYDRASVSPDSAGWFANSDGFGIKRVDTVAGRIEKVMFDEVGPGAITRIWITTIDKRGTWRFYFDGSDQPGWIIPAYDLMRINVPGLGKGMLQAHTSYTPEGKGGNTLFLPIPYARGCKVTFEDEPGVNPTPKYYHINFRKYPEGTQVETFSKEVVERAAQKIAEVDNRLLQPVAGRKGEILREEKSILPSDSLVIPLPAGENAVYEVKFNIRIDNPEQYAQLMRELVFSAGFDGKQTVWVPLSDFSGGGMGAPKVDSWYLTSDGKGNISSRWLMPYQKDGVLKVLNLSSRSVAATMEVNVAPLKWNKDRSLYFYASWRQENGIYIHDKPEEADQCVEWNFATLKGRGVYKGDLLSLYNHAPLWYGEGDEKIWVDDDTFPSHFGTGTEDYYNSSWAPVVPFYTPFGGAPRADLESSHGYNAFYRTRHLDGIPFNKSFKFDIEMLGWKRGEADYATTIYWYGDPEAQVFGTSGIEEARRQLLPAVEASADLEHHHHHH”, the protein production entry is listed as “not failed”.

For “MDISSTEIWDAIRRNSFLLYYQPKVDAKTNELIGFEGLIRLKTATAILAPADFFEDIALLNATREMQDFVAETAIEQINQLGGRFSISINIPAHYVVSSNYMTFLYDYVKEHLKYPECLEIEIIERGEITELAVADKNLRKIKKLGVTVSMDDFGKGYSSLAYLRSLPIDIVKTDMSFIALLKTDRKQQIIIQAIVNLCHDLGGKVVTEGVEDIEQVKTLREMKVDYFQGYYFSRPLPMKEIKEKYSIV”, the protein production result was “failed”.

Regarding “MDITNIKEMNYEEVFSITITVDKPILIGQDDIVGRRQLIPIISGKVSGNNFNGKVLPGGIDSQIVRPDGKCELSARYAIRLDDGAAIYIENNGIRTVPDEYIEAVKSGEFVDPNAYYFRTIPTFETYSPKYKWMMNHIFVCCASRLPENVLLKFYKIS”, the protein production entry is “not failed”.

Consider “MDIVISGGTGLIGRAITEIQGNTYNVITRGPSRTDGNINLVNWNDLRKIRHCDVVINLAGYNIGSKRWNPKIKEEIIRSRIESTRRMVEFISSLDSKPEAFLSGSAIGYYGYGENTVFDENSPPGTGFLAELANAWEDEALKASRYTRTVILRTSNVLSSSGGFLARIMNSRSRRVYYFGDGDQPVSWIHIKDYVNAVKFLMENKDISGPVNMAAPSPVSFADLAHAIAREKGYKEMKIPEFIGKLILGSEMYRELMSGQRVAPKKLTGSGFSFQYPDLESAIKNLLEHHHHHH”, for which the protein production entry was “failed”.

For “MDIVLIGGLWLNGSVWEGVASTLESLGHRPVPLTLPGQGDGAATATLDDQVAAVLAAVDAAPGRPMVVGHSAACALAWLAADRRPGRLAKVALIGGIPTPDGRPYADFFEVRDGVMPFPGWEPFQGPDAADLDEAARHELAAAAIPVPEAVARGVVRLSDERRYDVPVVVVCPEFTPAQARGWIDAGDVPELARAKHVDFADIDSGHWPMITKPAELARVLAAAAEGN”, the protein production result is “failed”.

Turning to “MDIVSVALQRYSTKAFDPSKKLTAEEADKIKTLLQYSPSSTNSQPWHFIVASTEEGKARVAKSAAGNYTFNERKMLDASHVVVFCAKTAMDDAWLERVVDQEDADGRFATPEAKAANDKGRRFFADMHRVSLKDDHQWMAKQVYLNVGNFLLGVAAMGLDAVPIEGFDAEVLDAEFGLKEKGYTSLVVVPVGHHSVEDFNAGLPKSRLPLETTLTEV”, the protein production entry is given as “not failed”.

With “MDKALTNHVIILSFDCLSALDFPILQKLPHFQSLIKKGTVVEKVEPIYPSVTYPSHSTIVTGNYPNKHGVVSNTLLQPGRESPDWHWYRKSIKGTTLYDEARKANLTTAALLWPVTGRANIDYNLPEIFPNRPWQNQVLVSLFSGSPLYQLDLNRRFGHIRNGLSQPELDDFVLASAVHTIQTKKPNIMFVHFTDLDTQRHYHGFESNETIAAIQRHDERLGKIIQALKESDLYEESTIIALGDHSALSENKSIQLNVLFHQRGLISLNKKRKLVDWKAYCQSCDGSAYVYVKDKNDTDTIREVQLLLEELLQNKQNGIEFILHDEAAKDCGADGNCLFMLEAREGYYFTENYTGDFIKEITEKDVTLSKKYTFGTHGYSPTKPNYETIFIAAGKGIKSGVTVPYMRLIDEGPTIARLLGLHLGETDGAIVEDLLQLLEHHHHHH”, the protein production entry was “not failed”.

Consider “MDKESTKWIRFLGGKNLLYTLTILCLIAVTIFLFNTVSFIFKPIFVIFSAVLGPVLFGIILFYLLNPMVKRLEKKIPRVWAIAILYVLIIALLVLAGLQLFPIIQDQTEELIKQFPSFWKSTLQTVQEFMAKTPFAKDLESANESINQLWGKLANSFKDFAGDYLQTGAQGLGSVFSAVSSTFLTLFTGPIIAFFLLKDKEKFYRFVKGIIPPAFRPDFDEYSQIANIQIGDYLKGQVIASLVLGIMYWPAFLLIGLQFGSILALAAGILCIIPYIGPFIAFIPGLIIAFQDSTFMVVKFVIVWFAIQLIHGDFVIPRVMGDKLKVHPITILLVLLVMGELFGLMGVIFGIPMYCLVKVTVIYLFRKFKQRYNRFYGDNGEYEHTNFTKDQYLK”, for which the protein production entry is “failed”.

On to “MDKKYDITAVLNEDSSMTAISDQFQITLDARPKHTAKGFGPLAALLSGLAACELATANLMAPAKMITINKLLMNVTGSRSTNPTDGYFGLREINLHWEIHSPNSETEIKEFIDFVSKRCPAHNTLQGVSQLKINVNVTLVH”, for which the protein production entry is recorded as “not failed”.

Consider “MDKNILAIIFVAVGTYLIRYIPIHLHSKIKNIDEKVKEINEILIYSSTSVISALFITSFIKFPIIFSNVLISTISLIFAIVSYKKWNNLGISILISVVIYYLASKFLISI”, for which the protein production result was “failed”.

The values are drawn from a protein production outcome set (Wang et al. 2014).
